In paper PMC6724696 (Molecular Biology of the Cell, 2019):
Where two headings read alike, the source gives them in different places. Where no end group is shown, it is not given here.

Legend:
Assay in all cases: crystal structure
crystal structure [1] = target: the molecule itself
crystal structure [2] = target: the molecule itself; remark: listed apart in the source
crystal structure [3] = target: the molecule itself; remark: listed apart in the source

B1: 3H5I-Spc42^181–211 T193E,S195E (domain or fragment, Saccharomyces cerevisiae, UniProt P36094 181-211, looked up)
chain: SDQDSRLKAIERELEVLTNYVMRSEDGNNDR
Crystal structure [1]
  stoichiometry N: 3

B2: Spc42^246–305 (domain or fragment, Saccharomyces cerevisiae, UniProt P36094 246-305, looked up)
chain: SDDDIMMYESAELKRVEEEIEELKRKILVRKKHDLRKLSLNNQLQELQSMMDGDDNIKLD
modifications: also: selenomethionine (SeMet) in the crystals
Crystal structure [2]
  stoichiometry N: 2

B3: H6-Spc42^11–130-3K2N (SeMet) (domain or fragment, Saccharomyces cerevisiae, UniProt P36094 11-130, looked up)
chain: SSKSSRLYDDYYNIPYQYSNPTPMNRDYNDVGSRINADKLVPEEYKRNTEFINKAVQQNKELNFKLREKQNEIFELKKIAETLRSKLEKYVDITKKLEDQNLNLQIKISDLEKKLSDANS
modifications: selenomethionine (SeMet)
Crystal structure [3]
  binding result: binds
